Assay: soluble on expression in E. coli; label from the status in PepcDB or PDB records

Soluble on expression in E. coli, soluble:
MRVVAAHENLDFDALGSMVLAGRLYPGSVLALVGGVEGVLREVLPLLEDRLDLVPASEIPLDRVREVVLVDNARPERLGPLAALVGRVPFLVYDHHPRTPGDVPAVGGRVAPVGATVSLLVPLLLERGVALDPLEATLAYAGLWEDTGGFSFPSTTPEDLEAAGHLLRQGAEVARVRDWVRPRFGEEAREILSQLLKTAHLVERKGFRLLVARAREKGYVPALAPLAHTLLDLYEADGVLLALRLGGDTLLIARSKARLDVGRWLGALGGGGHARAAFARVRGKGRALARLLETLEAFLDPEPTLGQAMTAPVETLRPTSVREALRQLEERGYGAMPVVEPLGEGVRVLGLARRRDLRKAVRLGFGDHPVEGFLVRAVVLPPSTPLSQVEPRLREAGGRVLVGERAGEGWRLLGIYTRTDLYRSAPRPEPTLAERVLKALPSGVFRVVEALREAFPEGVYLVGGAVRDALLGRSGPDLDLAVGPGVEVARVAQFLVDRFGGSYGLHYAFGTARVRLPFGLVVDLAESREEVYPYPGALPEVRRAPIARDLERRDYSVNAMAVDLGGLAFLDPYGGLRDLEARLLRPLHPLAFVEDPTRVVRGARLAARLGFRFAEEVPRLLAPALLPEVVAGASRSRLREELLLTLEEEAFYRALALLAELGALKALYGLDLPPEAPFLRLRAEEGLGEARLLLLLFHQKDPLERAAWLALPGRLREGLALLLAASRGEEVPKEALGREPLRAAFLALFPEKEAWLKAERRVLMGRDLLKLGLKPGPKVGEILRRVAEARRRGEVRSFEEELALARKLLGDGTLALPE, MVALRGKDATSFLARPDPGRPIVLLYGPDAGLVRERADALIAASLDDPKDPFALVRLDGDELSAEPSRLVDEALAIPMFGGRRAIRVRAGSRSFVAGVEALIASPPRECRIVIEAGDIKPDNALRKACEKAATGAVAIGCYPDAEADIARLIDDELRGSNLQIAKDARAVLTTLLGGDRQASRNELRKLALYAHGKGEVTLDDVITCVSDASDLKLDAIVDAAFSGKPVVVETEFAKAMVAGTYPGQIILAAQRHAAFLHKTSLVVEGGTPAAVVLDSGFPRLHFSRKAAAETALRNLSTTRLAQIIEQLASAALETRRQATLGAAIAQRTLLSIAVSARRRSLEHHHHHH, MEIEVKFRVNFEDIKRKIEGLGAKFFGIEEQEDVYFELPSPKLLRVRKINNTGKSYITYKEILDKRNEEFYELEFEVQDPEGAIELFKRLGFKVQGVVKKRRWIYKLNNVTFELNRVEKAGDFLDIEVITSNPEEGKKIIWDVARRLGLKEEDVEPKLYIELINGLEHHHHHH, MSLEDHAEELASDLGVDKEEVTRDLENLVNYSVPMDEAKQSLRRKYGDGSSGGDSTPSSKAINEVSTEDSNVTVTAVVLTSGRRSIQYNGEQHVIREGELADETGKISYTAWDGFSGDLQPGQTVQLGNAGVREWDGQPELNLGDSTDPEVVDETLDIDYDVGGRAALQDLAPGDRGITVEVQVLECEQKVIDGRDGETTILSGVLGDESGRLPFTDWDPHDEIEEGASVRLDETFVREFRGAPSVNVSEFSAVTALDRTVGVTEDAPRLSVREAVESGGLFDVELAGNVIEVRDGSGLIERCPECGRVIQNGQCRSHGAVEGEDDLRTKAILDDGTDTVTAVLDDELTARVYGGDLDDAREHARDAMDKEVVAERISDRIVGREYVVRGSLSVDEYGANLTASTFAEADDDPATRAQALLQEADTLEHHHHHH, MKKLLVIRNDKIGDFMLCFPAFMMLKQSMPNIEITALVPNYTAPLAELCPAIDHLIIDNTDKQDPIAFKQVQQAVQNGQFDAVICFVSSWYNAKLTWQSGIRYRLAPATKLFQFLYNHRLTQRRSQSIKAESEYNLDLARAFLIDHHMMPVEPQLEHHHHHH, MSLSSKEYFSDTDSFENTPCPLCGSESSSLLYEINSYKYNKCNNCELVYLNPRLKEESLLEYYAQDSFYAEYSSGTGYEIQERALRSTFSRYMKELHKRNVTGGKLLEIGCGFGFLLDEAKNYFDYRIGTDFSSEAVSHAKKYADNVYCGGLEAIPSDTSTKFDCVITFSVLEHVYNPNTFIQEIQNYMAPNGSLVVSTPFIGGMWYKILGKKWSFFIPPEHVCLYNHNSISQLLKQNGFKNIEMFISSHAWPVAGFLSKMGMRKLSSMTLKLKIGDVPLFVPFTIINIIGSKEGHHHHHH, MPQIYFSAAERRPKFVMKTGLSATEKNEVIKAAYRQIFERDITRAYSLSISDLESKVKNGDISMKEFVRRLAKSPLYQKQFYQPFINSRVIELAFRHILGRGPSSREEVQKYFSIISNGGLPALVDALVDSAEYSDYFGEETVPYLRGLEHHHHHH, MSEVKYKRVILKLSGEALAGEKGFGINPPVIKTVAEELKDVYDMGVQIAIVVGGGNMWRGEAGAQMGMERAQADYIGMLATIMNALALQDNLESIGVPTRVQTSIEMRQIAEPYIRRKAMRHLEKRRIVIFAGGTGSPYFSTDTTAALRAAEINADAILMAKNGVDGVYSADPNKDASAVKFDTLTHLDIINKGLQVMDTTASSLSMDNDIPVVVFNLNEPGNIRKVVAGEHIGTTVRGKLEHHHHHH, MNPIVVLGSKVVDGQVTGLLASRLEKAIEVSSLTPEAPVVVSGFGEAAAMADYLRARGVTTIVEEPWATSTNENLENAHALFPDTLQWTVVTSGFHAWRTYLWAWHLGIPIKVVTARTPSAERLGMAMRECFALPHSTLRVLWRKIRTPKNLEHHHHHH

Soluble on expression in E. coli, not soluble:
MGSDKIHHHHHHMKIIKLRNNSPEFNYKMIVLARESRGIGQRELATLVETDQGNLSRIEKGAQTPVKDMIERISKALDYPVSFFRLQHSVYDFSKSYYRRKLKMPKKEIELSEAKINISKINIETLIRAVELPEPNYPTFDLSKDLSASACAIQLRKYWKLPHGRVENFTKVLEDNGVLVANIDFAGIEVDGHAILTENNLPIIFINKNITADRYRLTLAHELGHLCLHVGREIAEDRDVEQEAFMFAAELLTPEVEIAPDLCEVSIEKLKELKKYWKVSMGSLLKRAHVLKGVSDNQYKYLWQQMGNMGYKTVEPKELEFEKEKPKLLKEIIDAHLEELQYSEDELSELLGLKIQEFAKSYAPARPRLRVSKGKAR, MAVMKVLIVEDETAAYENLTDILTEITPDIRIMANTESVTQTVGWLQSNPAPDLIFMDIHLSDGSAFAIFDRIELETPIIFTTAYDRYAIEAFKVNSIDYLLKPVKVEDVEHALEKYSKLTRQDLLQYLSQLTLLKPAPRYKDKLLIAHKDKLLPVNIKNISYFYATGKNTYVCLKDGNRYPYSKTLEQIASSLNPEDFIRANKQFIVARDSVTDITIWFDNRLLITLDTEVPERIYVSKNKASEFKTWLVNDK, MIEIKNLTLQRGLKVLLDKANATVNPGQRVGLIGKNGTGKSSLFALIKGEITQDGGDVSIPKNWRLASVSQETPDLDISALDYVLQGDAELQAFQTALRQAEAQNDGMKQAEYHAKLEE, MLEVDVVRISVIVPIYNVKLYIERCVRSLMEQTLENIEFIFVNDCTPDDSMDILHYVLEEYPKRREQIKIIEHETNRGISAVRNTGLKNATGQYIIYCDSDDWVEKNMYEKLLVKALETSADIVGCDFFDDYVAHSTIRKQLFPQQSEKCVKKMLRGELHCGTWNKLVIKSLYERTKIDFPEGINMWEDVSTIIPLCFHATKIDYIPEALYHYIHHNVSSYTYSVTEKSLENLVASIQLLESFFLTNQCFKTFGEDLCFMKLTVKLNLLLGSKGELQKKRNMLYSSANRYIFSYSGMSWYWKIALWVASKKMLFCFNVMSCIERIIKKWKLEHHHHHH, MSSNPLRFFVLTIFPHIISCYSEYGIVKQAIKKGKVEVYPIDLREFAPKGQVDDVPYGGLPGMVLKPEPIYEAYDYVVENYGKPFVLITEPWGEKLNQKLVNELSKKERIMIICGRYEGVDERVKKIVDMEISLGDFILSGGEIVALAVIDAVSRVLPGVLSEPQSIQEDSFQNRWLGYPVYTRPREYRGMKVPEELLSGHHKLIELWKLWHRIENTVKKRPDLIPKDLTELEKDILNSILSGKSFKEWLKEHKHLLLEHHHHHH, MGSDKIHHHHHHMQELCSSVVLRKHSWIQYNAMSDTVIKVEKLSKEYRLGTINHGFLFRDLQSWWARRRGKEDPNSLITTYQQHLVSDDNSRLSGGRFLALDDLTFEVRQGDALGIIGRNGAGKSTLLKIISKVTSPTSGVVKIRGRVASLLEVGTGFHPELTGRENIYLNGAISGMNKKEIKNKFDEIVAFSGVEKFIDSPVKRYSSGMYVRLAFAVAAHLGPEILIVDEVLAVGDIQFQKQCLGKMDDISKGGRTVVFVSHSLQTIASLCRECILLDQGKIKKRGLPSEVILEYLGEGGSSCADFTKLGRTVGDNFVQLVMGIVQDANNEVITEIDIREPLKISMHFTVKQDTSIRYIPNFHFTVPGGTYAFVSSPSSISELSSGNYIATCNIPGNFLNEGTYYVGLAITSYEPGMTIHFFEPNVLTFSIRDPMENCVGRYGFGYANVMPGIVRPNLDWDVRKSG, MSLEDYSVVNRFESHGGGWGYSAHSVEAIRFSADTDILLGGLGLFGGRGEYTAKIKLFELGPDGGDHETDGDLLAETDVLAYDCAAREKYAMMFDEPVLLQAGWWYVAWARVSGPSSDCGSHGQASITTDDGVIFQFKSSKKSNNGTDVNAGQIPQLLYRLPTSDGSTSKGKQQTSEPVHILKRSFARTVSVECFESLLSILHWSWTTLVLGVEELRGLKGFQFTATLLDLERLRFVGTCCLRLLRVYTCEIYPVSATGKAVVEETSKLAECIGKTRTLLRKILSEGVDHCMVKLDNDPQGYLSQPLRLLEAVLQECHNTFTACFHSFYPTPALQWACLCDLLNCLDQEANFKTSSSRLLAAVMSALCHTSVKLTSLFPIAYDGEVLLRSIVKQVSTENDSTLVHRFPLLVGHMEKLSQSEENISGMTSFREVLEKMLVIVVLPVRNSLRRESELFSSHLVSNTCGLLASIVSELTASALGSEVDGLNSLHSVKASANRFTKTSQGRSWNTGNGSPDAICFAVDKPGIVVVGFAVYGGGGIHEYELEVLVDDSEHAGDSTHSHRWTSLELVKGTYTTDDSPSDIAEIRLDKVVPLKENVKYAVRLRNYGSRTANGDGGMTTVQCPDGVTFTFSTCSLSSNGTNQTRGQIPQILYYRSEEGHHHHHH, MNTRIKPVRSFLFVPGNKESMLDKAAQAGADALILDLEDSVPSPEKTAARELVAKKIPELIAQNQRIWVRINRTAHIYDLDDILAVAPAGIEGIYISKPGGPEDVYMASCMIAEAEARANLPLGSIGLIPLLETARSMQLCYDIAQMPRVAGIVGATARNADMGRALKFVWTAEGRETEYLKSRVVMAARAAGKQAIGGLWQQIKDLDGLAKSSAFDRQLGMSGELVLHPMQVETINRTYTPTAEDVAYYQGMIEALDAAQAQGRASVMYEGEHIDIAHVKTAHEVIALAQSFGN, MCDIGNLTQYRQAQEDILRGRVKVRVVGQDKGGGVVMGEGVEIAPGARIEGPVLIGGACHIATGAVVGPFTVLGPYTRVEEGATVRRSVLWDNVYTGEGANVRGLEHHHHHH, MAHHHHHHMKTLKEALTNVLSSLNIAEKKEILNVLYHILQKIIENPSRAKFRSLKKDNKTFVNKLLQFKESDELLRSLGFEEETEIWFFPVKNDHKLSSNLTEIRAFIKEHVNTIYNNQDSIFETGTASSSAHLPTDEKNVTENTSNLGDTCNNSEGLTLGGLSKRRLEKERLELLSQKENTIKLLQEHADKWIIQITGAENTLYSNETFQMQFKFTEKYPIESPEVIFLGQPPIHPHIYSNGHICLSILYDHWSPVLSVNSICLSIISMLSSCKKKRKPLDDILYCSTGPRISPKNMKWMFHDDKV, MIYFQTKDDAFFTLASEQEADKPHREHLLDLTLGKGRKRKSSEVLRRGRLAACGLSFVVKNTLGELVGSVRLWHVQFNKGHNEIQHALLLGPLAVAAECSGIGIGSALMRHAIATAKKMGYGAIFLVGDCAFYQRFGFSSSLTKNLAMPGPYEKHRFQALELIPHYLTSCHGILTPSGELEDWNSFQHHKVA

— the DeepSol protein solubility set
